{"source": "patent US20090148466A1", "about": "“Process for the Preparation of Hypoallergenic Mosaic Antigens” (BIOMAY AG, priority 2003, published 2009)", "molecules": {"B1": {"name": "rPhl p 2: recombinantly produced wild type timothy grass pollen allergen Phl p 2, his-tagged (protein)", "chain": "MVPKVTFTVEKGSNEKHLAVLVKYEGDTMAEVELREHGSDEWVAMTKGEGGVWTFDSEEPLQGPFNFRFLTEKGMKNVFDDVVPEKYTIGATYAPEEHHHHHH"}, "B2": {"name": "P2M: recombinant his-tagged mosaic protein: the three Phl p 2-derived peptides recombined in altered order 1, 3, 2 (SEQ ID NO:1) (protein)", "chain": "MVPKVTFTVEKGSNEKHLAVLVKYEGDTMAEVELFRFLTEKGMKNVFDDVVPEKYTIGATYAPEEREHGSDEWVAMTKGEGGVWTFDSEEPLQGPFNHHHHHH", "modifications": "His tag"}}, "key": {"[1]": {"experiment": "Characteristics of Phl p 2-derived synthetic peptides (isoelectric point)", "format": "physicochemical", "text": "Table 1: Characteristics of Phl p 2-derived synthetic peptides. […] Peptide 1 corresponds to SEQ ID NO:3, Peptide 3 corresponds to SEQ ID NO:4 and Peptide 2 corresponds to SEQ ID NO:5."}, "[2]": {"test_system": "grass pollen allergic patients", "experiment": "Skin prick test (immediate type skin reactions)", "conditions": "standardized skin prick solution", "protocol": "SPTs (skin prick tests) were performed on the individuals' forearms. Twenty microliter aliquots containing 5 concentrations of rPhl p 2 and of Phl p 2-derived mosaic P2M (1 μg/ml, 2 μg/ml, 4 μg/ml, 8 μg/ml, 16 μg/ml) were applied. In addition, standardized skin prick solutions (timothy grass pollen extract and histamine) (Allergopharma, Reinbeck, Germany) were tested. Reactions were recorded 20 minutes after SPT by photography and by transferring the ballpoint pen-surrounded wheal area with a scotch tape to paper. The mean wheal diameter (Dm) was calculated by measuring the maximal longitudinal and transversal diameter and dividing their sum by 2 as described by Focke et al., 2001."}, "[3]": {"test_system": "Basophils from a grass pollen allergic patient", "experiment": "Basophil histamine release", "format": "cell-based, human", "text": "(§1) The IgE binding capacity of purified Phl p 2 mosaic (P2M) was compared with that of Phl p 2 wildtype by dot blot experiments as described for the peptides using sera from twelve timothy grass pollen allergic patients (FIG. 7). […] Basophils from a grass pollen allergic patient were enriched by dextran sedimentation and exposed to increasing concentrations of purified rPhl p 2 or rPhl p 2 mosaic as described (Valent P, Besemer J, Muhm M, Majdic O; Lechner K, Bettelhei P. Interleukin 3 activates human blood basophils via high-affinity binding sites. Proc. Natl. Acad. Sci. USA 1989, 86: 5542-5546).\nHistamine released in the cell free supernatants was determined in triplicates by radioimmuno assay and is expressed as mean percentage of the total histamine content of the cells as described by Valent et al."}, "[4]": {"test_system": "serum IgE", "conditions": "cited from earlier work"}, "[5]": {"test_system": "IgE antibodies in sera from grass pollen allergic patients", "experiment": "IgE reactivity by dot blot with sera from grass pollen allergic patients", "format": "binding, human", "conditions": "for IgE binding capacity (dot blot): sera from 12 timothy grass pollen allergic patients", "method": "The allergenic activity of the Phl p 2-derived peptides was evaluated by comparing the IgE-reactivity of complete rPhl p 2 with the peptides by dot blot analysis (FIG. 1). Nitrocellulose-dotted Phl p 2-derived peptides (P1-P3), an immunologically unrelated major grass pollen allergen, rPhl p 5 (Vrtala S, Sperr W R, Reimitzer I, van Ree R, Laffer S, Müller WD, Valent P, Lechner K, Rumpold H, Kraft D, Scheiner 0, Valenta R. cDNA cloning of a major allergen from timothy grass (Phleum pratense) pollen; characterization of the recombinant Phl p V allergen. J. Immunol. 1993, 151: 4773-4781), and for control purposes, human serum albumin as well as a control peptide were exposed to sera from grass pollen allergic patients and to serum from a non-allergic individual.\nBound IgE antibodies were detected as described previously (Valenta R, Duchêne M, Ebner C, Valent P, Sillaber C, Deviller P, Ferreira F, Tejkl M, Edelmann H, Kraft D, Scheiner O. Profilins constitute a novel family of functional plant pan-allergens. J. Exp. Med. 1992, 175: 377-385).\nas §1"}}, "data": [{"molecule": "Peptide 2: synthetic Phl p 2-derived peptide; Table 1 prints aa 65-96, SEQ ID NO:4; text says aa 34-64 (REHGSDEWVAMTKGEGGVWTFDSEEPLQGPFNC) [synthetic Phl p 2-derived peptide; text says aa 34-64]", "values": [{"measurement": "Isoelectric point", "setting": "[1]", "result": 4.03}]}, {"molecule": "Peptide 3: synthetic Phl p 2-derived peptide; Table 1 prints aa 34-64, SEQ ID NO:5; text says aa 65-96 (CFRFLTEKGMKNVFDDVVPEKYTIGATYAPEE) [synthetic Phl p 2-derived peptide; text says aa 65-96]", "values": [{"measurement": "Isoelectric point", "setting": "[1]", "result": 4.45}]}, {"molecule": "NCCc1c[nH]cn1", "note": "[Histamine, histamine]", "values": [{"measurement": "mean wheal diameter", "setting": "[2]; Individual 1", "result": 8, "unit": "mm"}, {"measurement": "mean wheal diameter", "setting": "[2]; Individual 2", "result": 8, "unit": "mm"}]}, {"molecule": "B1", "values": [{"measurement": "concentration of maximal histamine release", "setting": "[3]; basophils from a grass pollen allergic patient", "result": "10^−3 μg/ml"}, {"measurement": "share of grass pollen allergic individuals whose serum IgE reacts", "setting": "[4]", "result": "about 70%"}, {"measurement": "IgE reactivity (dot blot)", "setting": "[5]; nitrocellulose-dotted, sera from 35 grass pollen allergic patients", "result": "Sera from all 35 grass pollen allergic patients showed IgE reactivity"}, {"measurement": "IgE binding capacity (dot blot)", "setting": "[5]", "result": "Sera from all 12 grass pollen allergic patients contained IgE antibodies against rPhl p 2"}]}, {"molecule": "B2", "values": [{"measurement": "reduced allergenic activity compared to the rPhl p 2 allergen", "setting": "[3]; basophil histamine release", "result": "more than 1000 fold"}, {"measurement": "IgE binding capacity (dot blot)", "setting": "[5]", "result": "no serum exhibited IgE reactivity"}]}]}
